These are literature values, as cited in article PMC1297595.

pKd: −log10 of the molar value.

For orientation: pKd means the negative decadic logarithm of the Kd, by convention in mol/L.

The target of the series is CD26 (Homo sapiens) (UniProt P27487).
UniProt P27487, sequence (P27487 39-766): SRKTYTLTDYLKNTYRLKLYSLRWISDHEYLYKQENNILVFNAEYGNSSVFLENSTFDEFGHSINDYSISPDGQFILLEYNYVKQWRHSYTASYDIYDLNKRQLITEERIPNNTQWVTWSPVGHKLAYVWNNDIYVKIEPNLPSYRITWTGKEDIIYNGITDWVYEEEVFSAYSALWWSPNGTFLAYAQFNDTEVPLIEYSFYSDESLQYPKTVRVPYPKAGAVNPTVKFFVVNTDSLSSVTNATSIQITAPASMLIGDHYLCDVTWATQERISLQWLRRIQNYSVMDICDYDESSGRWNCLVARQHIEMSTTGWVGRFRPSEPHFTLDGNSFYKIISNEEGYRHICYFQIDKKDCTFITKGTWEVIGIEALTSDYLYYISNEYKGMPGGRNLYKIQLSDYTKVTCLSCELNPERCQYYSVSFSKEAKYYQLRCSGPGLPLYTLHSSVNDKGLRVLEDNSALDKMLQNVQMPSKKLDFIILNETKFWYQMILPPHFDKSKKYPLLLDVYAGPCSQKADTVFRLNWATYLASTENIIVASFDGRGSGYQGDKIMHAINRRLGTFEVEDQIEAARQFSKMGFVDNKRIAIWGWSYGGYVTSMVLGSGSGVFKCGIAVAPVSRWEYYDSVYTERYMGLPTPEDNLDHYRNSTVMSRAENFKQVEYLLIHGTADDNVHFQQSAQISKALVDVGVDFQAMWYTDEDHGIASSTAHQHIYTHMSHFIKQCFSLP

Consider ADA (from UniProt P00813), for which the pKd was 7.19.
